Experimental data from publication PMC11724289, “Structural insights into a DNA polymerase reading the xeno nucleic acid HNA”.

How the values were obtained:
[1] = biological target: T1, KOD-H4 DNA polymerase V93Q;I114T;D141A;E143A;S383K;K429G;F445L;A485L;Y493V;Y496H;Y497M;Y499F;A500E;R501N;I521L;E664K;K726R;N735K (Thermococcus kodakarensis KOD?) (UniProt D0VWU9); assay: fluorescence polarization; settings: template fully HNA (1,5-anhydrohexitol nucleic acid); primer DNA; FP: 1x ThermoPol (20 mM Tris-HCl, 10 mM (NH4)2SO4, 10 mM KCl, 2 mM MgSO4, 0.1% Triton X-100, pH 8.8), 25 C, 20 min, 5 nM labeled primer
T1 sequence: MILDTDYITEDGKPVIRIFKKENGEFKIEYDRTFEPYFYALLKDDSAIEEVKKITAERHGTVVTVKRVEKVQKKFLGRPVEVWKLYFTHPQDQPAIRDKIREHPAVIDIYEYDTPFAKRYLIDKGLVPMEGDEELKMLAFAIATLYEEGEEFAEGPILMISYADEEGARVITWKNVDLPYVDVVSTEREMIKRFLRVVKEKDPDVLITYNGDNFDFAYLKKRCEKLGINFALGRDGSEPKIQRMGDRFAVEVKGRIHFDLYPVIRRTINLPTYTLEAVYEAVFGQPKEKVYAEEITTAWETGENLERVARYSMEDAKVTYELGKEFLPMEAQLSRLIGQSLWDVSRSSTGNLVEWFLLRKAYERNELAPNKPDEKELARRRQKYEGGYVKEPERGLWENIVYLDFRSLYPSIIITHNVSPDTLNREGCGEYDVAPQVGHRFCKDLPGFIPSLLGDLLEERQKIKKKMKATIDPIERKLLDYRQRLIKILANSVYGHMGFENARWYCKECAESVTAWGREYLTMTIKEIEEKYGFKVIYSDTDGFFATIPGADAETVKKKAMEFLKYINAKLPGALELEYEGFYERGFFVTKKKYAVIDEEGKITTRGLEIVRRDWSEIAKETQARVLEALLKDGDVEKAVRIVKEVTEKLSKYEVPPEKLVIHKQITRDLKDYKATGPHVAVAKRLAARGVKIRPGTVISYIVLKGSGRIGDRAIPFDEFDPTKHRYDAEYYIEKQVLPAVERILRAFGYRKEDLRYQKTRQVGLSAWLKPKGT

[2] = biological target: T2, Tgo-H4 (RT-H4) DNA polymerase V93Q;I114T;D141A;E143A;S383K;E429G;F445L;A485L;F493V;Y496H;Y497M;Y499F;A500E;K501N;I521L;E664K;K726R;N735K (UniProt P56689); assay: fluorescence polarization; settings: template fully HNA (1,5-anhydrohexitol nucleic acid); primer DNA; FP: 1x ThermoPol (20 mM Tris-HCl, 10 mM (NH4)2SO4, 10 mM KCl, 2 mM MgSO4, 0.1% Triton X-100, pH 8.8), 25 C, 20 min, 5 nM labeled primer
T2 sequence: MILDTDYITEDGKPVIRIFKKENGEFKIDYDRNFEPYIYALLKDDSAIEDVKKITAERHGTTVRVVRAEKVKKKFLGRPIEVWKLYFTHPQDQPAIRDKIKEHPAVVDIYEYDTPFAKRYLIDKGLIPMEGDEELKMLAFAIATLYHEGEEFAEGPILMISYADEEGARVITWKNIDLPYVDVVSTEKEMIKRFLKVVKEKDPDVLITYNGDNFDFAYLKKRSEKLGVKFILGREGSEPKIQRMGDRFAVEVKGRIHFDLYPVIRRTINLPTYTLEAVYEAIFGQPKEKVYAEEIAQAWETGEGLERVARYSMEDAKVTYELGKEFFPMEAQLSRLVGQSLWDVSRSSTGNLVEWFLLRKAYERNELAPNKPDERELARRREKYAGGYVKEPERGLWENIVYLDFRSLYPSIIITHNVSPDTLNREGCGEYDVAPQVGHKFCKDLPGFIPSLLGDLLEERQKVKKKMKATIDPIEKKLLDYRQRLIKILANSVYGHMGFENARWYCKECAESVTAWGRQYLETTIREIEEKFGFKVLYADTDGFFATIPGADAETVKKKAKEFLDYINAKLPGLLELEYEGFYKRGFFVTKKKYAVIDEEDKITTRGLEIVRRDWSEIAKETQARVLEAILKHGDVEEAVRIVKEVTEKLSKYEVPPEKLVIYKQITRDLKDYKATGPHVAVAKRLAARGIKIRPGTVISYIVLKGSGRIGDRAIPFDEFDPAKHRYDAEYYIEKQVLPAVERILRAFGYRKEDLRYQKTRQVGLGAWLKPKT

[3] = biological target: T3, Tgo-H4 (RT-H4) DNA polymerase (UniProt P56689 1-773, V93Q;I114T;D141A;E143A;S383K;E429G;F445L;A485L;F493V;Y496H;Y497M;Y499F;A500E;K50 …); assay: fluorescence polarization; 2 mM MgSO4; apparent KD, Hill slope 1.66; FP: 1x ThermoPol (20 mM Tris-HCl, 10 mM (NH4)2SO4, 10 mM KCl, 2 mM MgSO4, 0.1% Triton X-100, pH 8.8), 25 C, 20 min, 5 nM labeled primer; settings: protein: recombinant; label: 5'-6-FAM on primer; 5' overhang 6 nt on template; 10-nt duplex
T3 sequence: T2 sequence

[4] = biological target: T4, KOD-H4 DNA polymerase (UniProt D0VWU9 1-774, V93Q;I114T;D141A;E143A;S383K;K429G;F445L;A485L;Y493V;Y496H;Y497M;Y499F;A500E;R50 …); assay: fluorescence polarization; 2 mM MgSO4; apparent KD, Hill slope 1.67; FP: 1x ThermoPol (20 mM Tris-HCl, 10 mM (NH4)2SO4, 10 mM KCl, 2 mM MgSO4, 0.1% Triton X-100, pH 8.8), 25 C, 20 min, 5 nM labeled primer; settings: protein: recombinant; label: 5'-6-FAM on primer; 5' overhang 6 nt on template; 10-nt duplex
T4 sequence: T1 sequence

[5] = biological target: T4, KOD-H4 DNA polymerase; assay: X-ray crystallography; dGTP analogue dGMPNPP-type (alpha,beta-imido, NHdGTP); Mg2+ or Mg2+/Mn2+; FP: 1x ThermoPol (20 mM Tris-HCl, 10 mM (NH4)2SO4, 10 mM KCl, 2 mM MgSO4, 0.1% Triton X-100, pH 8.8), 25 C, 20 min, 5 nM labeled primer; settings: protein: recombinant; 5' overhang 3 nt on template; 13-nt duplex

Molecule: GACCACGGCC / AACTGTGGCCGTGGTC [DNA primer/HNA template (FP)]
- Kd [1]: 80.2 nM
- Kd [2]: 61.5 nM

B1: DNA primer/DNA template (FP) (dsDNA)
DNA 1: GACCACGGCC
DNA 2: AACTGTGGCCGTGGTC
- Kd [3]: 10 nM
- Kd [4]: 12.5 nM

B2: 13mer DNA primer/DNA template (crystal) (dsDNA)
DNA 1: GACCACGGCCACA
DNA 2: AACTGTGGCCGTGGTC
- binding result [5]: binds
